This is an account of results in patent US20130288389A1.

The target of this experiment is human rPrP^C 23-231 (human) (UniProt P04156). The experiment in a line: cell-based or functional assay.

“human sporadic CJD (sCJD) brain homogenate PrP-res (from UniProt P04156 23-230)” gave an eQuIC seeded conversion of substrate: lowest PrP-res amount detected of 1 fg.
